Source: US20210355238A1

Experiments:
[1] = biological target: Antigen A (multivalent high molecular weight protein); experiment: Biacore SPR at 25°C; mAb captured on anti-human Fc (236.5±1.0 RU), Antigen A injected at 100 nM
[2] = biological target: Antigen B (monomeric lower molecular weight protein); experiment: Biacore SPR at 25°C; mAb captured on anti-human Fc (236.1±0.8 RU), Antigen B injected at 90 nM

Antigen A bound - 100 nM (RU) [1]: 18 RU
Antigen B bound - 90 nM (RU) [2]: 7 RU
Substance: isotype control antibody (CI)
